# Measured values published in patent publication US20260144882A1 (BIO THERA SOLUTIONS, published 2026).
# T1: human Nectin-4 extracellular antigen hNectin-4-His (human, UniProt Q96NY8 32-349)
# T1 construct: C-terminal 8xHis tag included
# T1 sequence: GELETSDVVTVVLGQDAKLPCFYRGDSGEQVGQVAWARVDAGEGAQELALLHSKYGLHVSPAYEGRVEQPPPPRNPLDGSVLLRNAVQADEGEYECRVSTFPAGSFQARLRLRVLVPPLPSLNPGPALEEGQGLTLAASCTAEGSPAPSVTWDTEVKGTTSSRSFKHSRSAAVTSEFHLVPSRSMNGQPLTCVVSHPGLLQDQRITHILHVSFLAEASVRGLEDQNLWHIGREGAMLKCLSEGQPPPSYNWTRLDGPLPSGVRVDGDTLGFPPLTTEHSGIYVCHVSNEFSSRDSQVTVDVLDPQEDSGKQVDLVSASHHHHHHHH
# Target: T1, human Nectin-4 extracellular antigen …
# Assay: ELISA, phage scFv supernatant 1:50
# Description: The supernatants were diluted 50-fold, and the binding OD values of the diluted supernatants to hNectin-4-His were measured by ELISA. The samples were serially 3-fold diluted, and the EC₅₀ titer for the binding of the supernatants to the antigen was measured by ELISA. […] The light chain variable region sequence is set forth in SEQ ID NO: 25. The OD value is the measurement of ELISA, and the EC₅₀ value denotes the EC₅₀ value of the binding activity titer of the supernatant to the antigen.
row,Binder,OD value [OD]
1,"1F3-1G5 scFv (scFv, V domains shown, phage clone supernatant) VH: EVQLVESGGGLVQPGGSLRLSCAASGFSFGSYGMSWVRQAPGKGLEWVSGIKPSTSTTYYADSVKGRFTISRDNSKNTLYLQMNSLRAEDTAVYYCARAELLAFDVYTASDYWGQGTLVTVSS VL: DIQMTQSPSSLSASVGDRVTITCRASQGISSYLAWYQQKPGKAPKLLIYAASSLQSGVPSRFSGSGSGTDFTLTISSLQPEDFATYYCQQHYTTPPTFGQGTKVEIKR",1.56
2,"1F3-1B1 scFv (scFv, V domains shown, phage clone supernatant) VH: EVQLVESGGGLVQPGGSLRLSCAASGFTFGTYGMSWVRQAPGKGLEWVSGIKPGDSTTYYADSVKGRFTISRDNSKNTLYLQMNSLRAEDTAVYYCARAELLAFDVYTASDYWGQGTLVTVSS VL: DIQMTQSPSSLSASVGDRVTITCRASQGISSYLAWYQQKPGKAPKLLIYAASSLQSGVPSRFSGSGSGTDFTLTISSLQPEDFATYYCQQHYTTPPTFGQGTKVEIKR",1.65
3,"1F3-1F8 scFv (scFv, V domains shown, phage clone supernatant) VH: EVQLVESGGGLVQPGGSLRLSCAASGFNFGNYGMSWVRQAPGKGLEWVSRISGDGSNINYADSVKGRFTISRDNSKNTLYLQMNSLRAEDTAVYYCARAELLAFDVYTASDYWGQGTLVTVSS VL: DIQMTQSPSSLSASVGDRVTITCRASQGISSYLAWYQQKPGKAPKLLIYAASSLQSGVPSRFSGSGSGTDFTLTISSLQPEDFATYYCQQHYTTPPTFGQGTKVEIKR",1.67
4,"1F3-2A11 scFv (scFv, V domains shown, phage clone supernatant) VH: EVQLVESGGGLVQPGGSLRLSCAASGDNFYTFYMSWVRQAPGKGLEWVSGIKPTGSYINYADSVKGRFTISRDNSKNTLYLQMNSLRAEDTAVYYCARAELLAFDVYTASDYWGQGTLVTVSS VL: DIQMTQSPSSLSASVGDRVTITCRASQGISSYLAWYQQKPGKAPKLLIYAASSLQSGVPSRFSGSGSGTDFTLTISSLQPEDFATYYCQQHYTTPPTFGQGTKVEIKR",1.52
5,"1F3-1H3 scFv (scFv, V domains shown, phage clone supernatant) VH: EVQLVESGGGLVQPGGSLRLSCAASGFNFYNYGMSWVRQAPGKGLEWVSGIKPHSDVAHYADSVKGRFTISRDNSKNTLYLQMNSLRAEDTAVYYCARAELLAFDVYTASDYWGQGTLVTVSS VL: DIQMTQSPSSLSASVGDRVTITCRASQGISSYLAWYQQKPGKAPKLLIYAASSLQSGVPSRFSGSGSGTDFTLTISSLQPEDFATYYCQQHYTTPPTFGQGTKVEIKR",1.73
6,"1F3-1E9 scFv (scFv, V domains shown, phage clone supernatant) VH: EVQLVESGGGLVQPGGSLRLSCAASGFTFDDYAMSWVRQAPGKGLEWVSGIKPSSWTTYYADSVKGRFTISRDNSKNTLYLQMNSLRAEDTAVYYCARAELLAFDVYTASDYWGQGTLVTVSS VL: DIQMTQSPSSLSASVGDRVTITCRASQGISSYLAWYQQKPGKAPKLLIYAASSLQSGVPSRFSGSGSGTDFTLTISSLQPEDFATYYCQQHYTTPPTFGQGTKVEIKR",1.55
7,"1F3-1D12 scFv (scFv, V domains shown, phage clone supernatant) VH: EVQLVESGGGLVQPGGSLRLSCAASGYNFTDYGMSWVRQAPGKGLEWVSGISGSGDNKYYADSVKGRFTISRDNSKNTLYLQMNSLRAEDTAVYYCARAELLAFDVYTASDYWGQGTLVTVSS VL: DIQMTQSPSSLSASVGDRVTITCRASQGISSYLAWYQQKPGKAPKLLIYAASSLQSGVPSRFSGSGSGTDFTLTISSLQPEDFATYYCQQHYTTPPTFGQGTKVEIKR",1.63
8,"1F3-1E10 scFv (scFv, V domains shown, phage clone supernatant) VH: EVQLVESGGGLVQPGGSLRLSCAASGFNFSSYGMSWVRQAPGKGLEWVSRISPYTDNKYYADSVKGRFTISRDNSKNTLYLQMNSLRAEDTAVYYCARAELLAFDVYTASDYWGQGTLVTVSS VL: DIQMTQSPSSLSASVGDRVTITCRASQGISSYLAWYQQKPGKAPKLLIYAASSLQSGVPSRFSGSGSGTDFTLTISSLQPEDFATYYCQQHYTTPPTFGQGTKVEIKR",1.54
9,"1F3-1A9 scFv (scFv, V domains shown, phage clone supernatant) VH: EVQLVESGGGLVQPGGSLRLSCAASGYSFDNYAMSWVRQAPGKGLEWVSRISPTGGYASYADSVKGRFTISRDNSKNTLYLQMNSLRAEDTAVYYCARAELLAFDVYTASDYWGQGTLVTVSS VL: DIQMTQSPSSLSASVGDRVTITCRASQGISSYLAWYQQKPGKAPKLLIYAASSLQSGVPSRFSGSGSGTDFTLTISSLQPEDFATYYCQQHYTTPPTFGQGTKVEIKR",1.64
10,"1F3-1G7 scFv (scFv, V domains shown, phage clone supernatant) VH: EVQLVESGGGLVQPGGSLRLSCAASGDIFSNYSMSWVRQAPGKGLEWVSGIYPSGDSRRYADSVKGRFTISRDNSKNTLYLQMNSLRAEDTAVYYCARAELLAFDVYTASDYWGQGTLVTVSS VL: DIQMTQSPSSLSASVGDRVTITCRASQGISSYLAWYQQKPGKAPKLLIYAASSLQSGVPSRFSGSGSGTDFTLTISSLQPEDFATYYCQQHYTTPPTFGQGTKVEIKR",1.56
11,"1F3-1D6 scFv (scFv, V domains shown, phage clone supernatant) VH: EVQLVESGGGLVQPGGSLRLSCAASGGSFYGFGMSWVRQAPGKGLEWVSGIYSHDADKRYADSVKGRFTISRDNSKNTLYLQMNSLRAEDTAVYYCARAELLAFDVYTASDYWGQGTLVTVSS VL: DIQMTQSPSSLSASVGDRVTITCRASQGISSYLAWYQQKPGKAPKLLIYAASSLQSGVPSRFSGSGSGTDFTLTISSLQPEDFATYYCQQHYTTPPTFGQGTKVEIKR",1.44
12,"1F3-1G11 scFv (scFv, V domains shown, phage clone supernatant) VH: EVQLVESGGGLVQPGGSLRLSCAASGYSFTGYGMSWVRQAPGKGLEWVSGISPSGGTIGYADSVKGRFTISRDNSKNTLYLQMNSLRAEDTAVYYCARAELLAFDVYTASDYWGQGTLVTVSS VL: DIQMTQSPSSLSASVGDRVTITCRASQGISSYLAWYQQKPGKAPKLLIYAASSLQSGVPSRFSGSGSGTDFTLTISSLQPEDFATYYCQQHYTTPPTFGQGTKVEIKR",1.65
13,"1F3-1C4 scFv (scFv, V domains shown, phage clone supernatant) VH: EVQLVESGGGLVQPGGSLRLSCAASGFTFGDYGMSWVRQAPGKGLEWVSGIKPWGSGTYYADSVKGRFTISRDNSKNTLYLQMNSLRAEDTAVYYCARAELLAFDVYTASDYWGQGTLVTVSS VL: DIQMTQSPSSLSASVGDRVTITCRASQGISSYLAWYQQKPGKAPKLLIYAASSLQSGVPSRFSGSGSGTDFTLTISSLQPEDFATYYCQQHYTTPPTFGQGTKVEIKR",1.59
14,"1F3-1E1 scFv (scFv, V domains shown, phage clone supernatant) VH: EVQLVESGGGLVQPGGSLRLSCAASGFSFDDYAMSWVRQAPGKGLEWVSIIYPTGSTNYYADSVKGRFTISRDNSKNTLYLQMNSLRAEDTAVYYCARAELLAFDVYTASDYWGQGTLVTVSS VL: DIQMTQSPSSLSASVGDRVTITCRASQGISSYLAWYQQKPGKAPKLLIYAASSLQSGVPSRFSGSGSGTDFTLTISSLQPEDFATYYCQQHYTTPPTFGQGTKVEIKR",1.64
15,"1F3-1G2 scFv (scFv, V domains shown, phage clone supernatant) VH: EVQLVESGGGLVQPGGSLRLSCAASGYTFGDYGMSWVRQAPGKGLEWVSRIDPWGASIRYADSVKGRFTISRDNSKNTLYLQMNSLRAEDTAVYYCARAELLAFDVYTASDYWGQGTLVTVSS VL: DIQMTQSPSSLSASVGDRVTITCRASQGISSYLAWYQQKPGKAPKLLIYAASSLQSGVPSRFSGSGSGTDFTLTISSLQPEDFATYYCQQHYTTPPTFGQGTKVEIKR",1.6
16,"1F3-1D1 scFv (scFv, V domains shown, phage clone supernatant) VH: EVQLVESGGGLVQPGGSLRLSCAASGDIFTNYSMSWVRQAPGKGLEWVSGIYPSGDNNRYADSVKGRFTISRDNSKNTLYLQMNSLRAEDTAVYYCARAELLAFDVYTASDYWGQGTLVTVSS VL: DIQMTQSPSSLSASVGDRVTITCRASQGISSYLAWYQQKPGKAPKLLIYAASSLQSGVPSRFSGSGSGTDFTLTISSLQPEDFATYYCQQHYTTPPTFGQGTKVEIKR",1.29
17,"1F3-1H11 scFv (scFv, V domains shown, phage clone supernatant) VH: EVQLVESGGGLVQPGGSLRLSCAASGFNFTDYGMSWVRQAPGKGLEWVSRISQWGDTSNYADSVKGRFTISRDNSKNTLYLQMNSLRAEDTAVYYCARAELLAFDVYTASDYWGQGTLVTVSS VL: DIQMTQSPSSLSASVGDRVTITCRASQGISSYLAWYQQKPGKAPKLLIYAASSLQSGVPSRFSGSGSGTDFTLTISSLQPEDFATYYCQQHYTTPPTFGQGTKVEIKR",1.65
18,"1F3-1E4 scFv (scFv, V domains shown, phage clone supernatant) VH: EVQLVESGGGLVQPGGSLRLSCAASGFSFGTYGMSWVRQAPGKGLEWVSRISGDSANIRYADSVKGRFTISRDNSKNTLYLQMNSLRAEDTAVYYCARAELLAFDVYTASDYWGQGTLVTVSS VL: DIQMTQSPSSLSASVGDRVTITCRASQGISSYLAWYQQKPGKAPKLLIYAASSLQSGVPSRFSGSGSGTDFTLTISSLQPEDFATYYCQQHYTTPPTFGQGTKVEIKR",1.61
19,"1F3-1C11 scFv (scFv, V domains shown, phage clone supernatant) VH: EVQLVESGGGLVQPGGSLRLSCAASGFNFSSYGMSWVRQAPGKGLEWVSAISGSGGSTYYADSVKGRFTISRDNSKNTLYLQMNSLRAEDTAVYYCARAELLAFDVYTASDYWGQGTLVTVSS VL: DIQMTQSPSSLSASVGDRVTITCRASQGISSYLAWYQQKPGKAPKLLIYAASSLQSGVPSRFSGSGSGTDFTLTISSLQPEDFATYYCQQHYTTPPTFGQGTKVEIKR",1.63
20,"1F3-1F4 scFv (scFv, V domains shown, phage clone supernatant) VH: EVQLVESGGGLVQPGGSLRLSCAASGDIFTGSSMSWVRQAPGKGLEWVSGIYASGSDKRYADSVKGRFTISRDNSKNTLYLQMNSLRAEDTAVYYCARAELLAFDVYTASDYWGQGTLVTVSS VL: DIQMTQSPSSLSASVGDRVTITCRASQGISSYLAWYQQKPGKAPKLLIYAASSLQSGVPSRFSGSGSGTDFTLTISSLQPEDFATYYCQQHYTTPPTFGQGTKVEIKR",1.42
